# Measured values from article PMC5172437.
# Where two headings read alike, the source gives them in different places.
# Experiments:
# [1] = biological target: T1, human tumor necrosis factor alpha (hTNFa) (human, UniProt P01375 77-233); assay: ELONA
# [2] = biological target: T1, human tumor necrosis factor alpha …; assay: ELONA; remark: listed apart in the source
# [3] = biological target: T1, human tumor necrosis factor alpha …; assay: ELONA; remark: listed apart in the source
# [4] = biological target: T1, human tumor necrosis factor alpha …
# [5] = biological target: T1, human tumor necrosis factor alpha …; remark: listed apart in the source
# T1 sequence (P01375 77-233): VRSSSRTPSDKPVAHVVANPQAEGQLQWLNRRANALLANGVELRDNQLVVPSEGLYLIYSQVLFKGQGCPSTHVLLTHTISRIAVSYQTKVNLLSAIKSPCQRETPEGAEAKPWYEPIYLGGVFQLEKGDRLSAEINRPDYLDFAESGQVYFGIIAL
Binder,binding result [1],other results
CCCCGGGUUCUGUAUGAUCCGACCGGUCAGAUAAGACCAC (ssRNA) [3.1 random region],binds,–
UCAUGGUGUGUGAGUUAGCUCACGUGCCGUUUCGAAGGCG (ssRNA) [13.2 random region],–,binding result [2]: binds
CGUGCUAGAUGCUACGAGUGGUCUCCUCACGUAGAAGGGG (ssRNA) [16.3 random region],binds,–
CGUUGUAGUAGUGGCUUGGGCAUAACUCAGUUAAACACUA (ssRNA) [20.4 random region],binds,–
CGCAUCGUUUGCGUGGCGUGUCCGGGCGCCGAUUCGUAAA (ssRNA) [7.5 random region],–,binding result [2]: binds
AGGACGUACUUGGAAAAGAGGCGCGAAGAACCUGGUAUGU (ssRNA) [8.6 random region],binds,–
CAAGCCGAGGGGGAGUAUCUGAUGACAAUUCGGAGCUCCA (ssRNA) [11.7 random region],–,binding result [3]: binds
CGUAUAUACGGAUUAGGUUGUAGCUCAGACCAGUAAUGUC (ssRNA) [14.8 random region],–,binding result [2]: binds
CAUGGGCUAGACCGGCAUAAAACUGCUGUAGUUGCACGCC (ssRNA) [17.9 random region],binds,–
GGUCCCACAUAGGUUGGUCUUGUUGUAUGGGCUGUUUGCA (ssRNA) [18.10 random region],binds,–
GGAGUAUCUGAUGACAAUUCGGAGCUCC (ssRNA) [T3.11.7 (28 nt)],–,binding result [4]: binds
UACGGAUUAGGUUGUAGCUCAGACCAGUA (ssRNA) [T4.14.8 (29 nt)],–,binding result [5]: binds
